This series concerns the molecule itself. In words: cryo-EM structure.

B1: mouse TRPC5 construct lacking the C-terminal 210 residues (a.a. 1-765) (domain or fragment, UniProt Q9QX29 1-765, looked up)
chain: MAQLYYKKVNYSPYRDRIPLQIVRAETELSAEEKAFLSAVEKGDYATVKQALQEAEIYYNVNINCMDPLGRSALLIAIENENLEIMELLLNHSVYVGDALLYAIRKEVVGAVELLLSYRKPSGEKQVPTLMMDTQFSEFTPDITPIMLAAHTNNYEIIKLLVQKRVTIPRPHQIRCNCVECVSSSEVDSLRHSRSRLNIYKALASPSLIALSSEDPILTAFRLGWELKELSKVENEFKAEYEELSQQCKLFAKDLLDQARSSRELEIILNHRDDHSEELDPQKYHDLAKLKVAIKYHQKEFVAQPNCQQLLATLWYDGFPGWRRKHWVVKLLTCMTIGFLFPMLSIAYLISPRSNLGLFIKKPFIKFICHTASYLTFLFMLLLASQHIVRTDLHVQGPPPTVVEWMILPWVLGFIWGEIKEMWDGGFTEYIHDWWNLMDFAMNSLYLATISLKIVAYVKYNGSRPREEWEMWHPTLIAEALFAISNILSSLRLISLFTANSHLGPLQISLGRMLLDILKFLFIYCLVLLAFANGLNQLYFYYETRAIDEPNNCKGIRCEKQNNAFSTLFETLQSLFWSVFGLLNLYVTNVKARHEFTEFVGATMFGTYNVISLVVLLNMLIAMMNNSYQLIADHADIEWKFARTKLWMSYFDEGGTLPPPFNIIPSPKSFLYLGNWFNNTFCPKRDPDGRRRRHNLRSFTERHADSLIQNQHYQEVIRNLVKRYVAAMIRNSKTNEGLTEENFKELKQDISSFRYEVLDLLGNRK
In general, stoichiometry N refers to the number of molecules, sites or subunits per partner or assembly. In the case of B1, the “stoichiometry N” value is 4.

Values taken from doi:10.1101/467969 (bioRxiv, 2018).
